Several values for one entry are separate records, joined by “and”; a condition that tells them apart may be missing. Equal entries are not always repeated.
What was measured:
[1] = biological target: murine LRRC8C, full length (murine) (UniProt Q8R502); assay: affinity purification with mass spectrometry; differentially tagged murine LRRC8A (or LRRC8A^SAM) and LRRC8C co-expressed in HEK293S GnTI- or LRRC8-/- cells at A:C DNA ratios of 1:1 or 1:3; tandem affinity purification (Ni-NTA, then Streptactin) in digitonin, 25 mM Tris pH 8.5, 250 mM NaCl, 4 °C; LC-MS/MS absolute quantification with isotope-labelled peptides
[2] = biological target: murine LRRC8C, full length (murine) (UniProt Q8R502); assay: cryo-EM structure; tandem-purified LRRC8A/C (A:C DNA 1:1 and 1:3) in digitonin with tag-free Sb1 added at a 1.5 molar excess before vitrification; C1; high resolution only for the 1:1 sample
[3] = biological target: T1, endogenous LRRC8A of HEK293 cells (human (endogenous in HEK293T), UniProt Q8IWT6); assay: affinity purification with mass spectrometry; pairs of the bait Sb1: endogenous LRRC8 channels from HEK293T (WT) or LRRC8^B,D,E-/- cells isolated on SBP-tagged Sb1 and Streptactin resin (Sb1 either expressed in the same cells or purified and bound to the resin before the lysate was loaded; which protocol for which sample is not told); 2% GDN lysis, 36 mM Tris pH 8.5, 150 mM NaCl; tryptic digest, LC-MS/MS
T1 construct: LRRC8A, endogenous in HEK293 cells; also called A subunit; SWELL1; source: endogenous, HEK293T and HEK293 LRRC8^B,D,E-/- cells, lysate in 2% GDN; isolated on SBP-tagged Sb1

[4] = biological target: T2, endogenous LRRC8C of HEK293 cells (human (endogenous in HEK293T), UniProt Q8TDW0 1-803); assay: affinity purification with mass spectrometry; pairs of endogenous LRRC8 subunits in the channels isolated on SBP-tagged Sb1 from HEK293T (WT) or LRRC8^B,D,E-/- cells; shotgun LC-MS/MS and absolute quantification with two isotope-labelled reference peptides per subunit; details: partners not purified
T2 construct: LRRC8C, endogenous in HEK293 cells; also called C subunit; source: endogenous, HEK293T and HEK293 LRRC8^B,D,E-/- cells, lysate in 2% GDN
T2 sequence (looked up): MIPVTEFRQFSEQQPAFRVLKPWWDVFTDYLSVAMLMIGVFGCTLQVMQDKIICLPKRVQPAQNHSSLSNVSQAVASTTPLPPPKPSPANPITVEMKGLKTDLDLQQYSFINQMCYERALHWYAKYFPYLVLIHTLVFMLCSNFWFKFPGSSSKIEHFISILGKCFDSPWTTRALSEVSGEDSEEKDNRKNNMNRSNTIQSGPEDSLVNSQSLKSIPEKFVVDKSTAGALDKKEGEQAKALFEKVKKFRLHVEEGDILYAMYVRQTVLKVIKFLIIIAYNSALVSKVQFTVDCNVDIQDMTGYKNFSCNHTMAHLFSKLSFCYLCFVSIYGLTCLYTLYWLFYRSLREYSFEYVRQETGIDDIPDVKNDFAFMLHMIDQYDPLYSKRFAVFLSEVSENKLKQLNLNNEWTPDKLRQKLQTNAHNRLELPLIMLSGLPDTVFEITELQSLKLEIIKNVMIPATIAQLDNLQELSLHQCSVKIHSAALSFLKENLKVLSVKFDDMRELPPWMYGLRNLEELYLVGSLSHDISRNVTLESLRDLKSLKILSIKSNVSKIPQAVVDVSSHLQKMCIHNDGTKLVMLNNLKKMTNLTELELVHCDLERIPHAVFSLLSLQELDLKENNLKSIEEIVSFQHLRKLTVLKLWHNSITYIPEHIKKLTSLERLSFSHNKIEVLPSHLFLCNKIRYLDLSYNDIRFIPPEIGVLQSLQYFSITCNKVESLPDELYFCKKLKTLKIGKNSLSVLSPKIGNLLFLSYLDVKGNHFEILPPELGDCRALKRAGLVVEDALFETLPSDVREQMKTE

[5] = biological target: the molecule itself; assay: cryo-EM structure; homomeric LRRC8C at 5 mg/ml in digitonin, three data sets, two of them with Sb1 added at a 1:1.5 molar excess (per LRRC8C subunit) as negative control; C7 symmetry

LRRC8A^SAM, construct for co-expression with LRRC8C (from UniProt Q80WG5 1-67; Q80WG5 93-810)
stoichiometry N [1]: 2 A:C

murine LRRC8A (from UniProt Q80WG5 1-810) (natural protein)
stoichiometry N [1]: 2 A:C and 1.8 A:C | stoichiometry N [2]: 2 A:C

B1: SBP-tagged sybody Sb1 (VHH)
VHH: QVQLVESGGGLVQAGGSLRLSCAASGFPVGRHFMYWYRQAPGKEREWVAAIYSYGEYTEYADSVKGRFTISRDNAKNTVYLQMNSLKPEDTAVYYCYVYVGNEYWGQGTQVTVSA
notes: as the chain of m3 (sybody Sb1), here with a C-terminal 3C site, myc tag and SBP tag (pcDXc3MS); they are in PDB 8B41 and PDB 7P5V; also called SBP-tagged Sb1; immobilized Sb1; not shown: myc, C-terminal, kept; SBP, C-terminal, kept
binding result [3]: binds

B2: endogenous LRRC8A of HEK293 cells (natural protein, human (endogenous in HEK293T), UniProt Q8IWT6 1-810, looked up)
chain: MIPVTELRYFADTQPAYRILKPWWDVFTDYISIVMLMIAVFGGTLQVTQDKMICLPCKWVTKDSCNDSFRGWAAPGPEPTYPNSTILPTPDTGPTGIKYDLDRHQYNYVDAVCYENRLHWFAKYFPYLVLLHTLIFLACSNFWFKFPRTSSKLEHFVSILLKCFDSPWTTRALSETVVEESDPKPAFSKMNGSMDKKSSTVSEDVEATVPMLQRTKSRIEQGIVDRSETGVLDKKEGEQAKALFEKVKKFRTHVEEGDIVYRLYMRQTIIKVIKFILIICYTVYYVHNIKFDVDCTVDIESLTGYRTYRCAHPLATLFKILASFYISLVIFYGLICMYTLWWMLRRSLKKYSFESIREESSYSDIPDVKNDFAFMLHLIDQYDPLYSKRFAVFLSEVSENKLRQLNLNNEWTLDKLRQRLTKNAQDKLELHLFMLSGIPDTVFDLVELEVLKLELIPDVTIPPSIAQLTGLKELWLYHTAAKIEAPALAFLRENLRALHIKFTDIKEIPLWIYSLKTLEELHLTGNLSAENNRYIVIDGLRELKRLKVLRLKSNLSKLPQVVTDVGVHLQKLSINNEGTKLIVLNSLKKMANLTELELIRCDLERIPHSIFSLHNLQEIDLKDNNLKTIEEIISFQHLHRLTCLKLWYNHIAYIPIQIGNLTNLERLYLNRNKIEKIPTQLFYCRKLRYLDLSHNNLTFLPADIGLLQNLQNLAITANRIETLPPELFQCRKLRALHLGNNVLQSLPSRVGELTNLTQIELRGNRLECLPVELGECPLLKRSGLVVEEDLFNTLPPEVKERLWRADKEQA
notes: LRRC8A, endogenous in HEK293 cells; also called A subunit; SWELL1; source: endogenous, HEK293T and HEK293 LRRC8^B,D,E-/- cells, lysate in 2% GDN; isolated on SBP-tagged Sb1
stoichiometry N [4]: 2.9 A:C and 1.8 A:C

B3: murine LRRC8C, full length (natural protein, UniProt Q8R502 1-803, looked up)
chain: MIPVTEFRQFSEQQPAFRVLKPWWDVFTDYLSVAMLMIGVFGCTLQVMQDKIICLPKRVQPAQNHSSVPNVSQAVISTTPLPPPKPSPTNPATVEMKGLKTDLDLQQYSFINQMCYERALHWYAKYFPYLVLIHTLVFMLCSNFWFKFPGSSSKIEHFISILGKCFDSPWTTRALSEVSGEDSEEKDNRKNNMNRSGTIQSGPEGNLVRSQSLKSIPEKFVVDKSAAGALDKKEGEQAKALFEKVKKFRLHVEEGDILYAMYVRQTVLKVIKFLIIIAYNSALVSKVQFTVDCNVDIQDMTGYKNFSCNHTMAHLFSKLSFCYLCFVSIYGLTCLYTLYWLFYRSLREYSFEYVRQETGIDDIPDVKNDFAFMLHMIDQYDPLYSKRFAVFLSEVSENKLKQLNLNNEWTPDKLRQKLQTNAHNRLELPLIMLSGLPDTVFEITELQSLKLEIIKNVMIPATIAQLDNLQELCLHQCSVKIHSAALSFLKENLKVLSVKFDDMRELPPWMYGLRNLEELYLVGSLSHDISKNVTLESLRDLKSLKILSIKSNVSKIPQAVVDVSSHLQKMCVHNDGTKLVMLNNLKKMTNLTELELVHCDLERIPHAVFSLLSLQELDLKENNLKSIEEIVSFQHLRKLTVLKLWYNSIAYIPEHIKKLTSLERLFFSHNKVEVLPSHLFLCNKIRYLDLSYNDIRFIPPEIGVLQSLQYFSITCNKVESLPDELYFCKKLKTLKIGKNSLSVLSPKIGNLLFLSYLDIKGNHFEVLPPELGDCRALKRAGLVVEDALFETLPSDVREQMKAD
notes: LRRC8C, mouse; A remnant of the 3C site probably stays at the C-terminus; also called C subunit; C1; source: HEK293 LRRC8-/- cells (homomer; LRRC8A/C without Sb1; LRRC8A^SAM/C) or HEK293S GnTI- cells (LRRC8A/C/Sb1 samples), transfected, purified (Streptactin, SEC; tandem purification for heteromers) in digitonin; not shown: Venus, C-terminal, cleaved; myc, C-terminal, cleaved; SBP, C-terminal, …
stoichiometry N [5]: 7
